Results published in article PMC6193965.

Target: T1, mouse MILL2 extracellular domain (heavy chain) (mouse)
T1 sequence (Q8HWE5 whole entry, looked up): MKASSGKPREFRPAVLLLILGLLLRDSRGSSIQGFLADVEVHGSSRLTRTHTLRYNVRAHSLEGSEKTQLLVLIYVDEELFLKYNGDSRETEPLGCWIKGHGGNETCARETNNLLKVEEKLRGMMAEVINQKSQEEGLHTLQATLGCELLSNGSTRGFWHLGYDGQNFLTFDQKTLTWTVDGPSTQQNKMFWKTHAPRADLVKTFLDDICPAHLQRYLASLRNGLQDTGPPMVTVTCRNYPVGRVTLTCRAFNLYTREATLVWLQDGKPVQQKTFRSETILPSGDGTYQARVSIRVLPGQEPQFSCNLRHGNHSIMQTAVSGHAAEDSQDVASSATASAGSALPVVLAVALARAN
Experiment: SEC; MILL2 refolded by rapid dilution with 10 μM refolded β2m; complex purified on Superdex 75 and then by cation exchange (RESOURCE S); stoichiometry of the purified complex (Supplementary Fig. 1c)

In the case of “mouse β2-microglobulin (from UniProt P01887 21-119) (natural protein)”, the stoichiometry N was 1.
